These results are taken from patent US7414023 (dated 2008).

The target of assay [1] is PSA-API complex (human, UniProt P07288). As to the kind of experiment: other, IFMA.
Assay [2] addresses T1, PSA (human, UniProt P07288). As to the kind of experiment: SPR, 30 uM Zn2+.
For assay [3], the target named is trypsin. As to the kind of experiment: other, IFMA.
Assay [4] deals with T1, PSA. The assay is described as follows: competition, IFMA with free PSA.
In assay [5] the target is hK2 (human, UniProt P20151). The assay is described as follows: other, IFMA.
Assay [6] addresses T2, cathepsin G (human, UniProt P08311).
T2 chain: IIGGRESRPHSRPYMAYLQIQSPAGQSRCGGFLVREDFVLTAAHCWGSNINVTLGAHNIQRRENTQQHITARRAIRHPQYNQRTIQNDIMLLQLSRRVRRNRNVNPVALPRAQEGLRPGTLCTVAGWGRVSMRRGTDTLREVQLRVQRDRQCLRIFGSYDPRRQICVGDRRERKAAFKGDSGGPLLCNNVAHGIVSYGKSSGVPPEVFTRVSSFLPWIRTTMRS
As to the kind of experiment: other, IFMA.

The target in assay [7] is PSA-ACT complex (human, UniProt P07288). As to the kind of experiment: other, IFMA.
For assay [8], the target named is T1, PSA. As to the kind of experiment: SPR.
The target of assay [9] is T1, PSA. The assay is described as follows: SPR, 0 uM Zn2+.
The target of assay [10] is T1, PSA. The assay is described as follows: SPR, 10 uM Zn2+.
Assay [11] deals with T1, PSA. As to the kind of experiment: SPR, 1 uM Zn2+.
The target in assay [12] is T1, PSA. The assay is described as follows: other, IFMA.

Bridge positions count the residues as written; N and C are the ends. Ends that are not written are not given here.

Chain of hK2 (P20151 25-261): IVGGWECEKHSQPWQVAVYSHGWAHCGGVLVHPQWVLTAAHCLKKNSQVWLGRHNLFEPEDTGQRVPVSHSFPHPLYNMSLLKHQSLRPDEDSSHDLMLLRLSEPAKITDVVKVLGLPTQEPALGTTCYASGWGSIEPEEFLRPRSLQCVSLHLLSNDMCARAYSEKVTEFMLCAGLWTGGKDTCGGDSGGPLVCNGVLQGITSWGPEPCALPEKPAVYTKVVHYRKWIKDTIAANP

B1: GST-C-4 (peptide)
chain: CVAYCIEHHCWTC
modifications: disulfide 1-13, 5-10; also: GST fusion, site not given here
For B1, the binding result in [1], in [3], in assay [5], in [6] and in assay [7] was “no binding” throughout. For the same molecule, in [2], the Kd amounted to 860 nM. In assay [4], this molecule gave an IC50 of 0.7 nM.

B2: GST-A-1 (peptide)
chain: CVFTSDYAFC
modifications: disulfide 1-10 (inferred); also: GST fusion, site not given here
Consider B2, for which the dissociation constant Kd turned out to be 7800 nM in [8]; 1000 nM in assay [2]; 7800 nM in [9]; 1400 nM in assay [10]; 2600 nM in [11]. Moreover, the binding result in [1], in assay [3], in [5], in [6] and in assay [7] was “no binding” in each case. In addition, the IC50 in [4] was 3.3 nM.

B3: GST-B-2 (peptide)
chain: CVFAHNYDYLVC
modifications: disulfide 1-12 (inferred); also: GST fusion, site not given here
Turning to B3, the equilibrium dissociation constant (Kd) in assay [8] is 3500 nM; in assay [2], 800 nM; in assay [9], 3500 nM; in assay [10], 600 nM; in assay [11], 3100 nM. Also, the binding result in assay [1], in assay [3], in assay [5], in assay [6] and in [7] was “no binding” each time. In assay [4], this molecule displayed an IC50 of 1 nM.

B4: GST-D-1 (peptide)
chain: CLSTCAQSCRISC
modifications: also: GST fusion, disulfide pairing not given here
In the case of B4, in [12], the binding result is reported as “no binding”.
